One block for each binder: values may come before it.
Tests used:
human kallikrein 2 (hK2) [1] = target: T1, human kallikrein 2 (hK2) (human, UniProt P20151 25-261); assay: progress curve, pseudo-first order, fluorogenic substrate
T1 construct: two preparations treated as one molecule; also called kallikrein hK2
Description: (§1) Under these conditions, a fixed amount of enzyme (2 nM) was mixed with different concentrations of inhibitor (0-800 nM) and an excess of substrate (10 μM). Each reaction was made in reaction buffer (50 mM Tris pH 7.5, 150 mM NaCl, 0,05% Triton X-100, 0.01% BSA) at 25° C. for 45 min and the rate of product formation was measured using a FLₓ800 fluorescence 96-well microplate reader (Biotek, USA). In this model, inhibition is considered to be irreversible over the course of reaction and the progress of enzyme activity is expressed by product formation (P), beginning at a rate (vz) and is inhibited over time (t) at a first-order rate (kobs), rate constant that is dependent only on inhibitor concentration.

[2] = target: T2, human plasma kallikrein (PK) (human, UniProt P03952 20-638); assay: as above
Description: as §1

[3] = target: T3, human neutrophil elastase (HNE) (human, UniProt P08246 30-247, limits assumed); assay: as above
T3 sequence (looked up): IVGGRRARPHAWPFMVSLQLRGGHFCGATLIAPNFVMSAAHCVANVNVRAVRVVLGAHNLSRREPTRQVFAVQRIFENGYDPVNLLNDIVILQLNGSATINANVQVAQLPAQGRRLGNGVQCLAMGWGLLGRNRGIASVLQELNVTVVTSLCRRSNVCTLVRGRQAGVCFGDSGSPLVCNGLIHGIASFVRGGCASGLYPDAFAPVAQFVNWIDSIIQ
Description: as §1

human kallikrein 2 (hK2) [4] = target: T1, human kallikrein 2 (hK2); assay: residual enzyme activity against [I]o/[E]o, fluorogenic substrate
Description: (§2) The stoichiometry of inhibition (SI) values were determined for the inhibition of rACTWT and its variants with hK2 and different other enzymes. An initial test was made with a molar excess of rACT (100 fold) over hK2, PSA, hK1, chymotrypsin (Chtr), plasma kallikrein (PK), urokinase (uPA) and human neutrophile elastase (HNE) enzymes. The reaction was carried out for 30 min at 25° C. (90 min at 37° C. for PSA) in reaction buffer (50 mM Tris pH 7.5, 150 mM NaCl, 0,05% Triton X-100, 0.01% BSA) and residual enzyme activity was measured by adding fluorescent substrates (Z-Phe-Arg-AMC for hK1, hK2 and PK, Suc-Ala-Ala-Pro-Phe-AMC for Chtr, Z-Gly-Gly-Arg-AMC for uPA, MeOSuc-Ala-Ala-Pro-Val-AMC for HNE, and CFP-TFRSA-YFP (TFRSA SEQ ID NO:137) for PSA). Activity of enzyme in presence of inhibitors was compared to uninhibited reaction. For reactions where an inhibition was observed, SI was determined by incubating different concentrations of recombinant serpins. Using linear regression analysis of fractional activity (velocity of inhibited enzyme reaction/velocity of uninhibited enzyme reaction) versus the molar ratio of the inhibitor to enzyme ([Iₒ]/[Eₒ]), the stoichiometry of inhibition, corresponding to the abscissa intercept, was obtained.

[5] = target: T2, human plasma kallikrein (PK); assay: as above
Description: as §2

[6] = target: T3, human neutrophil elastase (HNE); assay: as above
Description: as §2

human kallikrein 2 (hK2) [7] = target: T1, human kallikrein 2 (hK2); assay: cell-based or functional assay
[8] = target: T4, urokinase plasminogen activator (uPA) (UniProt P00749 21-431, limits assumed); assay: cell-based or functional assay
[9] = target: T2, human plasma kallikrein (PK); assay: cell-based or functional assay
human kallikrein hK1 = human kallikrein hK1 (human, UniProt P06870 25-262); assay: cell-based or functional assay
[10] = target: T3, human neutrophil elastase (HNE); assay: cell-based or functional assay
[11] = target: T5, human chymotrypsin (Chtr) (human, UniProt P17538 19-263); assay: cell-based or functional assay
[12] = target: T4, urokinase plasminogen activator (uPA); assay: cell-based or functional assay; remark: listed apart in the source
thrombin [13] = assay: cell-based or functional assay
[14] = target: T5, human chymotrypsin (Chtr); assay: residual enzyme activity against [I]o/[E]o, fluorogenic substrate
Description: as §2

human kallikrein 2 (hK2) [15] = target: T1, human kallikrein 2 (hK2); assay: cell-based or functional assay; remark: listed apart in the source
[16] = target: T5, human chymotrypsin (Chtr); assay: cell-based or functional assay; remark: listed apart in the source
human kallikrein 8 (hK8) = target: T6, human kallikrein 8 (hK8) (human, UniProt O60259 33-260); assay: cell-based or functional assay
T6 sequence (looked up): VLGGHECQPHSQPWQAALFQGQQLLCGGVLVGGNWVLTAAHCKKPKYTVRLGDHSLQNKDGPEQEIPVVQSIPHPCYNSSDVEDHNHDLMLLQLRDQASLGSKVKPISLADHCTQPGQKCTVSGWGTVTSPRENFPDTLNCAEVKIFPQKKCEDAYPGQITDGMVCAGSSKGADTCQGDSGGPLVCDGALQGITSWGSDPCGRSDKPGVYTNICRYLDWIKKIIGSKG

[17] = target: T7, prostate specific antigen (PSA, hK3) (human, UniProt P07288 25-261); assay: cell-based or functional assay
human kallikrein 5 (hK5) = target: T8, human kallikrein 5 (hK5) (human, UniProt Q9Y337 67-293, limits assumed); assay: cell-based or functional assay
T8 sequence (looked up): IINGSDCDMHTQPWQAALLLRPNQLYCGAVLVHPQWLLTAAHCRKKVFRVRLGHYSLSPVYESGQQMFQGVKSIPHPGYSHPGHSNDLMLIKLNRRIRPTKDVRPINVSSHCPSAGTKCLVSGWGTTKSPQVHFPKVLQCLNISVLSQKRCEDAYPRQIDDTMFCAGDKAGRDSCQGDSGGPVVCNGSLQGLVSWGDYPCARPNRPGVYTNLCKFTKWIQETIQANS

thrombin [18] = assay: cell-based or functional assay; remark: listed apart in the source
[19] = target: T9, human kallikrein 13 (hK13) (human, UniProt Q9UKR3 26-277, limits assumed); assay: cell-based or functional assay
T9 sequence (looked up): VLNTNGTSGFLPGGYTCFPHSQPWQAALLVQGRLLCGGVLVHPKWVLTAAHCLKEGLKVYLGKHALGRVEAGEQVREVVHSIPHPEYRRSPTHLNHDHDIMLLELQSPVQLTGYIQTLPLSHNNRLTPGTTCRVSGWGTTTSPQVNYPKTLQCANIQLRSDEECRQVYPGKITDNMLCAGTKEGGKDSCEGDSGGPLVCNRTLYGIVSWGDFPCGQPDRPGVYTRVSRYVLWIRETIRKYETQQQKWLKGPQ

human kallikrein 6 (hK6) = human kallikrein 6 (hK6) (human, UniProt Q92876 22-244); assay: cell-based or functional assay
[20] = target: T5, human chymotrypsin (Chtr); assay: cell-based or functional assay; remark: listed apart in the source
[21] = target: T7, prostate specific antigen (PSA, hK3); assay: cell-based or functional assay; remark: listed apart in the source

T2 sequence (P03952 20-638 limits assumed): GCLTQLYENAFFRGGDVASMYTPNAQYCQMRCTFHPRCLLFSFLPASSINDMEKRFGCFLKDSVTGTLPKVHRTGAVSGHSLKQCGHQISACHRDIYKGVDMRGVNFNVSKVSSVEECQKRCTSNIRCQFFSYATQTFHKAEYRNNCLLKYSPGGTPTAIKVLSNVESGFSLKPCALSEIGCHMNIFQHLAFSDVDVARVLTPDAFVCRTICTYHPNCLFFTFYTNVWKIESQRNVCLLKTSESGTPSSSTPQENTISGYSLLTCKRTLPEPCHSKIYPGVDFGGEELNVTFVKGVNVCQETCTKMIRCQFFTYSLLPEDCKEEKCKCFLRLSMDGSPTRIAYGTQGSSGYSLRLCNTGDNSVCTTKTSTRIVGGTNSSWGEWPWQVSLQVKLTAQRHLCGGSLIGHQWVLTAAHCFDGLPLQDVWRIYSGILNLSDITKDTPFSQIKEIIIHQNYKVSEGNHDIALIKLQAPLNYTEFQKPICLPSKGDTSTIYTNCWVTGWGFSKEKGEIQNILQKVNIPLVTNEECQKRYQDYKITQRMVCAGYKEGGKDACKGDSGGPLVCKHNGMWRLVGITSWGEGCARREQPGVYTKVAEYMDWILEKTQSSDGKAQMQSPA
T5 sequence (P17538 19-263): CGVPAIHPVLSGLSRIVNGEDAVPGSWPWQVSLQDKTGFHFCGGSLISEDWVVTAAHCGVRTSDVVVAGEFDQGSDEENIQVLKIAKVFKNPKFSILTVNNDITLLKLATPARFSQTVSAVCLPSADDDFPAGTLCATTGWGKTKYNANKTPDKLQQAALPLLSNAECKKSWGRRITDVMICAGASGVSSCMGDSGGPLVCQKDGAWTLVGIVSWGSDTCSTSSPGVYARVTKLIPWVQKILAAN

- kon (human kallikrein 2 (hK2) [1]): 3440 M⁻¹ s⁻¹
- kon [2]: 8020 M⁻¹ s⁻¹
- kon [3]: 1190 M⁻¹ s⁻¹
- SI (stoichiometry of inhibition) (human kallikrein 2 (hK2) [4]): 19
- SI (stoichiometry of inhibition) [5]: 16
- SI (stoichiometry of inhibition) [6]: 159
- INHIBITION % (human kallikrein 2 (hK2) [7]): 100%
- INHIBITION % [8]: 0%
- INHIBITION % [9]: 100%
- INHIBITION % (human kallikrein hK1): 0%
- INHIBITION % [10]: 60%
B1: rACT6.1 (other)
chain: MRGSHHHHHHSRHPNSPLDEENLTQENQDRGTHVDLGLASANVDFAFSLYKQLVLKAPDKNVIFSPLSISTALAFLSLGAHNTTLTEILKGLKFNLTETSEAEIHQSFQHLLRTLNQSSDELQLSMGNAMFVKEQLSLLDRFTEDAKRLYGSEAFATDFQDSAAAKKLINDYVKNGTRGKITDLIKDLDSQTMMVLVNYIFFKAKWEMPFDPQDTHQSRFYLSKKKWVMVPMMSLHHLTIPYFRDEELSCTVVELKYTGNASALFILPDQDKMEEVEAMLLPETLKRWRDSLEFREIGELYLPKFSISRDYNLNDILLQLGIEEAFTSKADLSGITGARNLAVSQVVHKAVLDVFEEGTEASAATAVKIMTRSNAVETRTIVRFNRPFLMIIVPTDTQNIFFMSKVTNPKQA
notes: recombinant ACT variant, RSL substrate peptide MTRSN; N-terminal His tag, E. coli TG1; also called MD61; MD 61

- % Inhibition [11]: 100%
- % Inhibition [12]: 0%
- % Inhibition (thrombin [13]): 18%
- SI (stoichiometry of inhibition) [14]: 2
- Percentage inhibition (human kallikrein 2 (hK2) [15]): 0%
- Percentage inhibition [16]: 100%
- Percentage inhibition (human kallikrein 8 (hK8)): 0%
- Percentage inhibition [17]: 100%
- Percentage inhibition (human kallikrein 5 (hK5)): 7%
- Percentage inhibition (thrombin [18]): 18%
- Percentage inhibition [19]: 0%
- Percentage inhibition (human kallikrein 6 (hK6)): 24%
- INHIBITION % (human kallikrein 2 (hK2) [7]): 0%
- INHIBITION % [20]: 100%
- INHIBITION % [8]: 0%
- INHIBITION % [21]: 80%
- INHIBITION % (human kallikrein hK1): 0%
B2: rACTWT (recombinant wild type alpha-1-antichymotrypsin) (other, human)
chain: HHHHHHHPNSPLDEENLTQENQDRGTHVDLGLASANVDFAFSLYKQLVLKAPDKNVIFSPLSISTALAFLSLGAHNTTLTEILKGLKFNLTETSEAEIHQSFQHLLRTLNQSSDELQLSMGNAMFVKEQLSLLDRFTEDAKRLYGSEAFATDFQDSAAAKKLINDYVKNGTRGKITDLIKDLDSQTMMVLVNYIFFKAKWEMPFDPQDTHQSRFYLSKKKWVMVPMMSLHHLTIPYFRDEELSCTVVELKYTGNASALFILPDQDKMEEVEAMLLPETLKRWRDSLEFREIGELYLPKFSISRDYNLNDILLQLGIEEAFTSKADLSGITGARNLAVSQVVHKAVLDVFEEGTEASAATAVKITLLSALVETRTIVRFNRPFLMIIVPTDTQNIFFMSKVTNPKQA
notes: also called wild type rACT; wild type ACT

— patent US20140341881A1 (DERMADIS, published 2014)
